# Where two headings read alike, the source gives them in different places.
# Key:
# [1] = target: FANCB-FAAP100 heterodimer (Gallus gallus) (Gallus gallus); assay: cryo-EM structure
# [2] = target: FANCB-FAAP100 heterodimer (Gallus gallus) (Gallus gallus); assay: cryo-EM structure; remark: listed apart in the source
substance,measurement,setting,value
FANCB-FAAP100 heterodimer (Gallus gallus) (complex),stoichiometry N,[1],2
same,stoichiometry N,[2],2

# — PMC6858856
